Experimental data published in patent US20190135918A1 (ICHNOS SCIENCES, published 2019).
Blank lines part the entries; values can stand above or below the binder they belong to.

What was measured:
[1] = biological target: T1, human CD3 epsilon on cells (human, UniProt P07766 23-207); assay: FACS staining of HPB-ALL cells, scFv-Fc format, graded relative to chimeric OKT3
T1 construct: whole, on cells; On cells it stands in the CD3/TCR complex; also called HPB-ALL cells (human CD3 epsilon positive T cell tumour line); CD3 on human T cells
Method: HPB-ALL cells (DSMZ, Braunschweig, Germany, Cat. No: ACC483) were used as CD3 positive cell line for FACS staining. […] After washing, cells were incubated with a 1/200 dilution of anti-Human Fc-PE (EBioscience, Vienna, Austria) for 45 min on ice. Cells were then washed again and resuspended in 200 ul FACS buffer.

[2] = biological target: T2, soluble extracellular region of cynomolgus monkey CD38 antigen fused to a 6-His-tag (cynomolgus monkey, UniProt Q5VAN0 45-301); assay: SPR (summary table, row 'KD cynomolgus monkey CD38 (nM)')
T2 construct: also called cynomolgus CD38

human CD38 on cells [3] = biological target: T3, human CD38 on cells (human, UniProt P28907 1-300); assay: cell-based or functional assay
Protein A = biological target: T4, Protein A (Staphylococcus aureus, UniProt P38507 37-327); assay: protein A affinity chromatography, eluate (A) and flow-through (A ft) on non-reducing SDS-PAGE
T4 construct: Resin ligands (MabSelect, MabSelect SuRe) are recombinant or engineered forms; also called protein A chromatography

Protein G = biological target: T5, Protein G (UniProt P06654 228-352); assay: protein G affinity chromatography, eluate (G) and flow-through (G ft) on non-reducing SDS-PAGE
T5 construct: also called protein G chromatography
T5 sequence (P06654 228-352): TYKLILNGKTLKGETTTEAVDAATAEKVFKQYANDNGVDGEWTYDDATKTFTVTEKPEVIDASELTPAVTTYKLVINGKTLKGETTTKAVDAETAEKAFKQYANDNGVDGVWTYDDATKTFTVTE

human CD38 on cells [4] = biological target: T3, human CD38 on cells; assay: cell-based or functional assay; remark: listed apart in the source
[5] = biological target: T6, soluble extracellular region of human CD38 fused to a 6-His-tag (human, UniProt P28907 43-300); assay: SPR, antibody captured on protein G, CD38 injected
T6 construct: Expressed with the murine VJ2C leader; also called human CD38 protein; human CD38 antigen

B4: BEAT CD38-9G7Mouse/CD3 (bispecific antibody, human IgG1, kappa, L234A L235A)
heavy: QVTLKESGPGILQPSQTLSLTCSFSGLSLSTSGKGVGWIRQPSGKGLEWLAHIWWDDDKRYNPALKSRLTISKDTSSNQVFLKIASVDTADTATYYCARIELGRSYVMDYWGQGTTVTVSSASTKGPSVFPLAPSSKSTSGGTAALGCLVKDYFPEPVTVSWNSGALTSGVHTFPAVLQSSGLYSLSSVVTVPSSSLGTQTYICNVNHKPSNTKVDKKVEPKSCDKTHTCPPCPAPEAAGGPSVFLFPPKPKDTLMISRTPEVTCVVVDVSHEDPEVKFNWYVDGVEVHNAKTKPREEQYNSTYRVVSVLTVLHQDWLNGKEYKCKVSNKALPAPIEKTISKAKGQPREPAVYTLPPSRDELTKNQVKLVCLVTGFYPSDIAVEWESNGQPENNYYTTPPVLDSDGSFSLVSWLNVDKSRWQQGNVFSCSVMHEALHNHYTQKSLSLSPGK
light: DIVMTQSHKFMSTSVGDRVSISCKASQDVITSVAWFQQKPGQSPKLLIYSASYRYTGVPDRFTGSGSGTDFTFTISSVQAEDLAVYYCQQHYTIPLTFGAGTKLELKRTVAAPSVFIFPPSDEQLKSGTASVVCLLNNFYPREAKVQWKVDNALQSGNSQESVTEQDSKDSTYSLSSTLTLSKADYEKHKVYACEVTHQGLSSPVTKSFNRGEC
chain: EVQLVESGGGLVQPGGSLRLSCAASGYTFTRYTMHWVRQAPGKGLEWIGYINPSRGYTYYADSVKGRFTLSTDKSKNTAYLQMSSLRAEDTAVYYCARYYDDHYCLDYWGQGTLVTVSSGGGGSGGGGSGGGGSDIQLTQSPSSLSASVGDRVTITCRASSSVSYVAWYQQKPGKAPKRWIYDTSKLYSGVPSRFSGSGSGTDYTLTISSLQPEDFATYYCQQWSSNPPTFGQGTKVEIKGGGGTDKTHTCPPCPAPEAAGGPSVFLFPPKPKDTLMISRTPEVTCVVVDVSHEDPEVQFKWYVDGVEVHNAKTKPREEQYNSTFRVVSVLTVLHQDWLNGKEYKCKVSNKALPAPIEKTISKTKGQPREPEVATFPPSREEMTKNQVTLVCLVTGFYPSDIAVEWESSGQPENNYNTDPPLLESDGSFALSSRLRVDKSRWQQGNIFSCSVMHEALHNRFTQKSLSLSPGK
- killing assay against Daudi cells, flow cytometry readout, EC50 (pM) (human CD38 on cells [3]): 3.2 pM

B5: BEAT CD38-OKT10Mouse/CD3 (bispecific antibody, human IgG1, kappa, L234A L235A)
heavy: QVELVESGGSLKLSCAASGFDFSRSWMNWVRQAPGKGLEWIGEINPDSSTINYTTSLKDKFIISRDNAKNTLYLQMTKVRSEDTALYYCARYGNWFPYWGQGTLVTVSSASTKGPSVFPLAPSSKSTSGGTAALGCLVKDYFPEPVTVSWNSGALTSGVHTFPAVLQSSGLYSLSSVVTVPSSSLGTQTYICNVNHKPSNTKVDKKVEPKSCDKTHTCPPCPAPEAAGGPSVFLFPPKPKDTLMISRTPEVTCVVVDVSHEDPEVKFNWYVDGVEVHNAKTKPREEQYNSTYRVVSVLTVLHQDWLNGKEYKCKVSNKALPAPIEKTISKAKGQPREPAVYTLPPSRDELTKNQVKLVCLVTGFYPSDIAVEWESNGQPENNYYTTPPVLDSDGSFSLVSWLNVDKSRWQQGNVFSCSVMHEALHNHYTQKSLSLSPGK
light: DILMTQSQKIMPTSVGDRVSVTCKASQNVDTNVAWYQQKPGQSPKALIYSASYRYSGVPDRFTGSGSGTDFTLTITNVQSEDLAEYFCQQYDSYPLTFGAGTKLDLKRTVAAPSVFIFPPSDEQLKSGTASVVCLLNNFYPREAKVQWKVDNALQSGNSQESVTEQDSKDSTYSLSSTLTLSKADYEKHKVYACEVTHQGLSSPVTKSFNRGE
chain: EVQLVESGGGLVQPGGSLRLSCAASGYTFTRYTMHWVRQAPGKGLEWIGYINPSRGYTYYADSVKGRFTLSTDKSKNTAYLQMSSLRAEDTAVYYCARYYDDHYCLDYWGQGTLVTVSSGGGGSGGGGSGGGGSDIQLTQSPSSLSASVGDRVTITCRASSSVSYVAWYQQKPGKAPKRWIYDTSKLYSGVPSRFSGSGSGTDYTLTISSLQPEDFATYYCQQWSSNPPTFGQGTKVEIKGGGGTDKTHTCPPCPAPEAAGGPSVFLFPPKPKDTLMISRTPEVTCVVVDVSHEDPEVQFKWYVDGVEVHNAKTKPREEQYNSTFRVVSVLTVLHQDWLNGKEYKCKVSNKALPAPIEKTISKTKGQPREPEVATFPPSREEMTKNQVTLVCLVTGFYPSDIAVEWESSGQPENNYNTDPPLLESDGSFALSSRLRVDKSRWQQGNIFSCSVMHEALHNRFTQKSLSLSPGK
- killing assay against Daudi cells, flow cytometry readout, EC50 (pM) (human CD38 on cells [3]): 126 pM

B7: BEAT CD38-HB7bestfit/CD3 antibody (bispecific antibody, human IgG1, kappa, L234A L235A)
heavy: QVQLQESGPGLVKPSETLSLTCTVSGFSLISYGVHWVRQPPGKGLEWLGVIWRGGSTDYNAAFMSRLTISKDNSKNQVSLKLSSVTAADTAVYFCAKTLITTGYAMDYWGQGTLVTVSSASTKGPSVFPLAPSSKSTSGGTAALGCLVKDYFPEPVTVSWNSGALTSGVHTFPAVLQSSGLYSLSSVVTVPSSSLGTQTYICNVNHKPSNTKVDKKVEPKSCDKTHTCPPCPAPEAAGGPSVFLFPPKPKDTLMISRTPEVTCVVVDVSHEDPEVKFNWYVDGVEVHNAKTKPREEQYNSTYRVVSVLTVLHQDWLNGKEYKCKVSNKALPAPIEKTISKAKGQPREPAVYTLPPSRDELTKNQVKLVCLVTGFYPSDIAVEWESNGQPENNYYTTPPVLDSDGSFSLVSWLNVDKSRWQQGNVFSCSVMHEALHNHYTQKSLSLSPGK
light: DIQLTQSPSSLSASVGDRVTITCRASEDIYNRLAWYQQKPGKAPKLLISGATSLETGVPSRFSGSGSGKDYTLTISSLQPEDFATYYCQQYWSTPTFGQGTKLEIKRTVAAPSVFIFPPSDEQLKSGTASVVCLLNNFYPREAKVQWKVDNALQSGNSQESVTEQDSKDSTYSLSSTLTLSKADYEKHKVYACEVTHQGLSSPVTKSFNRGEC
chain: EVQLVESGGGLVQPGGSLRLSCAASGYTFTRYTMHWVRQAPGKGLEWIGYINPSRGYTYYADSVKGRFTLSTDKSKNTAYLQMSSLRAEDTAVYYCARYYDDHYCLDYWGQGTLVTVSSGGGGSGGGGSGGGGSGGGASDIQLTQSPSSLSASVGDRVTITCRASSSVSYVAWYQQKPGKAPKRWIYDTSKLYSGVPSRFSGSGSGTDYTLTISSLQPEDFATYYCQQWSSNPPTFGQGTKVEIKGGGGTDKTHTCPPCPAPEAAGGPSVFLFPPKPKDTLMISRTPEVTCVVVDVSHEDPEVQFKWYVDGVEVHNAKTKPREEQYNSTFRVVSVLTVLHQDWLNGKEYKCKVSNKALPAPIEKTISKTKGQPREPEVATFPPSREEMTKNQVTLVCLVTGFYPSDIAVEWESSGQPENNYNTDPPLLESDGSFALSSRLRVDKSRWQQGNIFSCSVMHEALHNRFTQKSLSLSPGK
notes: Anti-CD38 FAB arm and anti-CD3 epsilon scFv BEAT heavy chain (third chain)
- T cell redirected killing of RPMI 8226 myeloma cells, RDL-FACS method, EC50 (human CD38 on cells [4]): 0.0022 nM
- Kd [5]: 3.2 nM

The next lines start with the values.

- binding result [1]: binds
B1: VH8-VL4 (scFv)
scFv-Fc chain: EVQLVESGGGLVQPGGSLRLSCAASGYTFTRYTMHWVRQAPGKGLEWIGYINPSRGYTYYADSVKGRFTLSTDKSKNTAYLQMNSLRAEDTAVYYCARYYDDHYCLDYWGQGTLVTVSSGGGGSGGGGSGGGGSGGGASDIQLTQSPSSLSASVGDRVTITCRASSSVSYVAWYQQKPGKAPKRWIYDTSKLYSGVPSRFSGSRSGTDYTLTISSLQPEDFATYYCQQWSSNPPTFGQGTKVEIK
notes: also called humanized OKT3 VH8-VL4 scFv-Fc fusion; hOKT3 VH8-VL4 scFv Fc

- binding result [1]: binds
B2: VH8-VL8 (scFv)
scFv-Fc chain: EVQLVESGGGLVQPGGSLRLSCAASGYTFTRYTMHWVRQAPGKGLEWIGYINPSRGYTYYADSVKGRFTLSTDKSKNTAYLQMNSLRAEDTAVYYCARYYDDHYCLDYWGQGTLVTVSSGGGGSGGGGSGGGGSGGGASDIQLTQSPSSLSASVGDRVTITCRASSSVSYVAWYQQKPGKAPKRWIYDTSKLYSGVPSRFSGSGSGTDYTLTISSLQPEDFATYYCQQWSSNPPTFGQGTKVEIK
notes: also called humanized OKT3 VH8-VL8 scFv-Fc fusion; hOKT3 VH8-VL8 scFv Fc

- Kd [2]: 1 nM
B3: chimeric 9G7 antibody (antibody, human IgG1, kappa, V domains shown)
VH: QVTLKESGPGILQPSQTLSLTCSFSGLSLSTSGKGVGWIRQPSGKGLEWLAHIWWDDDKRYNPALKSRLTISKDTSSNQVFLKIASVDTADTATYYCARIELGRSYVMDYWGQGTTVTVSS
VL: DIVMTQSHKFMSTSVGDRVSISCKASQDVITSVAWFQQKPGQSPKLLIYSASYRYTGVPDRFTGSGSGTDFTFTISSVQAEDLAVYYCQQHYTIPLTFGAGTKLELKR

- binding result (Protein A): no binding
- binding result (Protein G): no binding
B6: BTB homodimer construct lacking the VH3 based scFv (other)
chain: DKTHTCPPCPAPEAAGGPSVFLFPPKPKDTLMISRTPEVTCVVVDVSHEDPEVKFNWYVDGVEVHNAKTKPREEQYNSTYRVVSVLTVLHQDWLNGKEYKCKVSNKALPAPIEKTISKAKGQPREPEVATFPPSRDELTKNQVTLVCLVTGFYPSDIAVEWESNGQPENNYKTDPPLLESQGSFALSSRLRVDKSRWQQGNVFSCSVMHEALHNHYTQKSLSLSPGK
notes: Human IgG1 Fc region with the BTB CH3 domain carrying D401Q
